Reference: publication PMC5999394, “Design principles of a microtubule polymerase” (eLife, 2018)

What was measured:
[1] = biological target: wild-type yeast microtubules (polymerized wild-type yeast αβ-tubulin) (S. cerevisiae) (UniProt P09733); assay: TIRF microscopy, fluorescence intensity of the Stu2-eGFP spot on the growing microtubule end; end intensity dynamic assay; 5-300 nM Stu2-eGFP (titration, hyperbolic fit; apparent) or 200 nM variant; 0.8 μM wild-type yeast tubulin; 30°C
[2] = biological target: T1, wild-type yeast microtubules (polymerized wild-type yeast αβ-tubulin) (S. cerevisiae, UniProt P09733 1-447; P02557 1-457); assay: TIRF microscopy of Stu2-eGFP on dynamic microtubules (kymographs); axoneme-seeded unlabeled dynamic yeast microtubules on the cover slip; Stu2-eGFP variant (100-200 nM) with 0.5-0.8 μM unpolymerized yeast tubulin in imaging buffer (1X PEM, 50 µM GTP, 0.1 mg/mL BSA, antifade); 30°C; conditions: both partners purified
T1 construct: Tub1p (yeast α-tubulin), S. cerevisiae; Tub2p (yeast β-tubulin), S. cerevisiae; Polymer of m2; also called microtubule lattice; microtubule end
T1 sequence (P09733 whole entry, chain 1 of 2): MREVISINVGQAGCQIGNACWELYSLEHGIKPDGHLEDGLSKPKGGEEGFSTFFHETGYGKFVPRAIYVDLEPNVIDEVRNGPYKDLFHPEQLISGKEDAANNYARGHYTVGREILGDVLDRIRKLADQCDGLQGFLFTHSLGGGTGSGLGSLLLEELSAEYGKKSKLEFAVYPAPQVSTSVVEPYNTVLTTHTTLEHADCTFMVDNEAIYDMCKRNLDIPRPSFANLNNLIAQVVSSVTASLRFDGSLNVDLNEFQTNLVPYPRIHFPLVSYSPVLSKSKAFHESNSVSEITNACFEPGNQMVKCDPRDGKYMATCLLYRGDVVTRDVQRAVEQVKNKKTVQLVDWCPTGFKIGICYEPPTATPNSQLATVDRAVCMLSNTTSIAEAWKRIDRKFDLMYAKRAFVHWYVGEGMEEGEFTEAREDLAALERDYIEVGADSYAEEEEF
T1 sequence (P02557 whole entry, chain 2 of 2): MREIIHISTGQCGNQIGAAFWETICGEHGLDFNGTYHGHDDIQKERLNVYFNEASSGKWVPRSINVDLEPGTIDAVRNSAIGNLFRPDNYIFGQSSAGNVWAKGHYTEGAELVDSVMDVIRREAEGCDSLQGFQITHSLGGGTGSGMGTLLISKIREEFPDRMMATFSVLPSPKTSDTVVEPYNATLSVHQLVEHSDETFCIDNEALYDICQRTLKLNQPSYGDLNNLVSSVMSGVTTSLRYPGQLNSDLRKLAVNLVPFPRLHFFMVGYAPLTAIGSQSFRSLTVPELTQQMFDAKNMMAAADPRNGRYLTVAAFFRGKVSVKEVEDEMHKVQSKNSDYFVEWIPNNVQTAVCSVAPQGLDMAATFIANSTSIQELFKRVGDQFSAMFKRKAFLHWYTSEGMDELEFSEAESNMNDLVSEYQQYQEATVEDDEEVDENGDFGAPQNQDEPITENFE

[3] = biological target: T1, wild-type yeast microtubules …; assay: TIRF microscopy, fluorescence intensity of the Stu2-eGFP spot on the growing microtubule end; end intensity dynamic assay; 5-300 nM Stu2-eGFP (titration, hyperbolic fit; apparent) or 200 nM variant; 0.8 μM wild-type yeast tubulin; 30°C; conditions: both partners purified
[4] = biological target: T1, wild-type yeast microtubules …; assay: single-molecule TIRF microscopy, residence time on the growing microtubule end; 5 nM Stu2-eGFP variant with 1-1.5 µM unlabeled wild-type yeast tubulin; 100 ms streaming; one-phase exponential fit of the dwell times; 30°C; conditions: both partners purified

Sequence of wild-type yeast microtubules (polymerized wild-type yeast αβ-tubulin) (S. cerevisiae) (P09733 whole entry, chain 1 of 2): as the sequence (P09733 whole entry, chain 1 of 2) above
Sequence of wild-type yeast microtubules (polymerized wild-type yeast αβ-tubulin) (S. cerevisiae) (P02557 whole entry, chain 2 of 2, further chain): as the sequence (P02557 whole entry, chain 2 of 2) above

Molecule	relative amount of polymerase on the microtubule end (wild type = one) (relative to wild type) [1]	binding result [2]	relative amount of polymerase on the microtubule end (wild type = one) [3]	characteristic residence time on the growing microtubule end [4] [s]
Stu2(TOG2-TOG2)-eGFP (from UniProt P46675 1-888)	1	–	–	–
'doubly dead' Stu2(TOG1*-TOG2*)-eGFP (natural protein, S. cerevisiae, UniProt P46675 1-888, looked up, Stu2, S. cerevisiae, fully dimeric (888) background; also called double dead Stu2; source: E. coli Arctic Express, purified (His60 Superflow, Strep-Tactin); not shown: eGFP, C-terminal, kept) MSGEEEVDYTTLPLEERLTYKLWKARLEAYKELNQLFRNSVGDISRDDNIQIYWRDPTLFAQYITDSNVVAQEQAIVALNSLIDAFASSSLKNAHNITLISTWTPLLVEKGLTSSRATTKTQSMSCILSLCGLDTSITQSVELVIPFFEKKLPKLIAAAANCVYELMAAFGLTNVNVQTFLPELLKHVPQLAGHGDRNVASQTMNLIVEIYKVTGNNSDLLEEILFKKLKPIQVKDLHKLFAKVGDEPSSSKMLFEWEKRELEKKRSQEEEARKRKSILSNDEGEYQIDKDGDTLMGMETDMPPSKQQSGVQIDTFSMLPEETILDKLPKDFQERITSSKWKDRVEALEEFWDSVLSQTKKLKSTSQNYSNLLGIYGHIIQKDANIQAVALAAQSVELICDKLKTPGFSKDYVSLVFTPLLDRTKEKKPSVIEAIRKALLTICKYYDPLASSGRNEDMLKDILEHMKHKTPQIRMECTQLFNASMKEEKDGYSTLQRYLKDEVVPIVIQIVNDTQPAIATIGFESFAILIKIFGMNTFVKTLEHLDNLKRKKIEETVKTLPNFSIASGSTHSTIETNKQTGPMENKFLLKKSSVLPSKRVASSPLRNDNKSKVNPIGSVASASKPSMVAANNKSRVLLTSKSLATPKNVVANSTDKNEKLIEEYKYRLQKLQNDEMIWTKERQSLLEKMNNTENYKIEMIKENEMLREQLKEAQSKLNEKNIQLRSKEIDVNKLSDRVLSLENELRNMEIELDRNKKRNDTNLQSMGTISSYSIPSSTVSSNYGVKSLSSALPFKEEEDVRRKEDVNYERRSSESIGDLPHRVNSLNIRPYRKNGTGVSSVSDDLDIDFNDSFASEESYKRAAAVTSTLKARIEKMKAKSRREGTTRT	–	binds	–	–
Stu2(TOG1-TOG2*)-eGFP (R519A) (natural protein, S. cerevisiae, UniProt P46675 1-888, looked up, Stu2, S. cerevisiae, fully dimeric (888) background; also called TOG2* (R519A); source: E. coli Arctic Express, purified (His60 Superflow, Strep-Tactin); not shown: eGFP, C-terminal, kept) MSGEEEVDYTTLPLEERLTYKLWKARLEAYKELNQLFRNSVGDISRDDNIQIYWRDPTLFAQYITDSNVVAQEQAIVALNSLIDAFASSSLKNAHNITLISTWTPLLVEKGLTSSRATTKTQSMSCILSLCGLDTSITQSVELVIPFFEKKLPKLIAAAANCVYELMAAFGLTNVNVQTFLPELLKHVPQLAGHGDRNVRSQTMNLIVEIYKVTGNNSDLLEEILFKKLKPIQVKDLHKLFAKVGDEPSSSKMLFEWEKRELEKKRSQEEEARKRKSILSNDEGEYQIDKDGDTLMGMETDMPPSKQQSGVQIDTFSMLPEETILDKLPKDFQERITSSKWKDRVEALEEFWDSVLSQTKKLKSTSQNYSNLLGIYGHIIQKDANIQAVALAAQSVELICDKLKTPGFSKDYVSLVFTPLLDRTKEKKPSVIEAIRKALLTICKYYDPLASSGRNEDMLKDILEHMKHKTPQIRMECTQLFNASMKEEKDGYSTLQRYLKDEVVPIVIQIVNDTQPAIATIGFESFAILIKIFGMNTFVKTLEHLDNLKRKKIEETVKTLPNFSIASGSTHSTIETNKQTGPMENKFLLKKSSVLPSKRVASSPLRNDNKSKVNPIGSVASASKPSMVAANNKSRVLLTSKSLATPKNVVANSTDKNEKLIEEYKYRLQKLQNDEMIWTKERQSLLEKMNNTENYKIEMIKENEMLREQLKEAQSKLNEKNIQLRSKEIDVNKLSDRVLSLENELRNMEIELDRNKKRNDTNLQSMGTISSYSIPSSTVSSNYGVKSLSSALPFKEEEDVRRKEDVNYERRSSESIGDLPHRVNSLNIRPYRKNGTGVSSVSDDLDIDFNDSFASEESYKRAAAVTSTLKARIEKMKAKSRREGTTRT	–	–	0.5 relative to wild type	4
Stu2(TOG1*-TOG2)-eGFP (R200A) (natural protein, S. cerevisiae, UniProt P46675 1-888, looked up, Stu2, S. cerevisiae, fully dimeric (888) background; also called TOG1* (R200A); source: E. coli Arctic Express, purified (His60 Superflow, Strep-Tactin); not shown: eGFP, C-terminal, kept) MSGEEEVDYTTLPLEERLTYKLWKARLEAYKELNQLFRNSVGDISRDDNIQIYWRDPTLFAQYITDSNVVAQEQAIVALNSLIDAFASSSLKNAHNITLISTWTPLLVEKGLTSSRATTKTQSMSCILSLCGLDTSITQSVELVIPFFEKKLPKLIAAAANCVYELMAAFGLTNVNVQTFLPELLKHVPQLAGHGDRNVASQTMNLIVEIYKVTGNNSDLLEEILFKKLKPIQVKDLHKLFAKVGDEPSSSKMLFEWEKRELEKKRSQEEEARKRKSILSNDEGEYQIDKDGDTLMGMETDMPPSKQQSGVQIDTFSMLPEETILDKLPKDFQERITSSKWKDRVEALEEFWDSVLSQTKKLKSTSQNYSNLLGIYGHIIQKDANIQAVALAAQSVELICDKLKTPGFSKDYVSLVFTPLLDRTKEKKPSVIEAIRKALLTICKYYDPLASSGRNEDMLKDILEHMKHKTPQIRMECTQLFNASMKEEKDGYSTLQRYLKDEVVPIVIQIVNDTQPAIRTIGFESFAILIKIFGMNTFVKTLEHLDNLKRKKIEETVKTLPNFSIASGSTHSTIETNKQTGPMENKFLLKKSSVLPSKRVASSPLRNDNKSKVNPIGSVASASKPSMVAANNKSRVLLTSKSLATPKNVVANSTDKNEKLIEEYKYRLQKLQNDEMIWTKERQSLLEKMNNTENYKIEMIKENEMLREQLKEAQSKLNEKNIQLRSKEIDVNKLSDRVLSLENELRNMEIELDRNKKRNDTNLQSMGTISSYSIPSSTVSSNYGVKSLSSALPFKEEEDVRRKEDVNYERRSSESIGDLPHRVNSLNIRPYRKNGTGVSSVSDDLDIDFNDSFASEESYKRAAAVTSTLKARIEKMKAKSRREGTTRT	–	–	–	1.7
Stu2(TOG2-TOG2*)-eGFP (other) MSGEEEVDYTTEETILDKLPKDFQERITSSKWKDRVEALEEFWDSVLSQTKKLKSTSQNYSNLLGIYGHIIQKDANIQAVALAAQSVELICDKLKTPGFSKDYVSLVFTPLLDRTKEKKPSVIEAIRKALLTICKYYDPLASSGRNEDMLKDILEHMKHKTPQIRMECTQLFNASMKEEKDGYSTLQRYLKDEVVPIVIQIVNDTQPAIRTIGFESFAILIKIFGMNTFVKTLEHLDNLKRKKIEETVKTDEPSSSKMLFEWEKRELEKKRSQEEEARKRKSILSNDEGEYQIDKDGDTLMGMETDMPPSKQQSGVQIDTFSMLPEETILDKLPKDFQERITSSKWKDRVEALEEFWDSVLSQTKKLKSTSQNYSNLLGIYGHIIQKDANIQAVALAAQSVELICDKLKTPGFSKDYVSLVFTPLLDRTKEKKPSVIEAIRKALLTICKYYDPLASSGRNEDMLKDILEHMKHKTPQIRMECTQLFNASMKEEKDGYSTLQRYLKDEVVPIVIQIVNDTQPAIATIGFESFAILIKIFGMNTFVKTLEHLDNLKRKKIEETVKTLPNFSIASGSTHSTIETNKQTGPMENKFLLKKSSVLPSKRVASSPLRNDNKSKVNPIGSVASASKPSMVAANNKSRVLLTSKSLATPKNVVANSTDKNEKLIEEYKYRLQKLQNDEMIWTKERQSLLEKMNNTENYKIEMIKENEMLREQLKEAQSKLNEKNIQLRSKEIDVNKLSDRVLSLENELRNMEIELDRNKKRNDTNLQSMGTISSYSIPSSTVSSNYGVKSLSSALPFKEEEDVRRKEDVNYERRSSESIGDLPHRVNSLNIRPYRKNGTGVSSVSDDLDIDFNDSFASEESYKRAAAVTSTLKARIEKMKAKSRREGTTRT	–	–	0.5 relative to wild type	3.9
